# B1: RILP-like protein 1 (Homo sapiens), Q5EBL4 (parent)
# chain: MEEERGSALAAESALEKNVAELTVMDVYDIASLVGHEFERVIDQHGCEAIARLMPKVVRVLEILEVLVSRHHVAPELDELRLELDRLRLERMDRIEKERKHQKELELVEDVWRGEAQDLLSQIAQLQEENKQLMTNLSHKDVNFSEEEFQKHEGMSERERQVMKKLKEVVDKQRDEIRAKDRELGLKNEDVEALQQQQTRLMKINHDLRHRVTVVEAQGKALIEQKVELEADLQTKEQEMGSLRAELGKLRERLQGEHSQNGEEEPETEPVGEESISDAEKVAMDLKDPNRPRFTLQELRDVLHERNELKSKVFLLQEELAYYKSEEMEEENRIPQPPPIAHPRTSPQPESGIKRLFSFFSRDKKRLANTQRNVHIQESFGQWANTHRDDGYTEQGQEALQHL
# B2: RILP-like protein 2 (Homo sapiens), Q969X0 (parent)
# chain: MEEPPVREEEEEEGEEDEERDEVGPEGALGKSPFQLTAEDVYDISYLLGRELMALGSDPRVTQLQFKVVRVLEMLEALVNEGSLALEELKMERDHLRKEVEGLRRQSPPASGEVNLGPNKMVVDLTDPNRPRFTLQELRDVLQERNKLKSQLLVVQEELQCYKSGLIPPREGPGGRREKDAVVTSAKNAGRNKEEKTIIKKLFFFRSGKQT
# Variants of: B1
# Settings: with rab8a_human RAB8A
row,effect of a mutation on the interaction,Variant
1,disrupting interaction strength,MEEERGSALAAESALEKNVAELTVMDVYDIASLVGHEFERVIDQHGCEAIARLMPKVVRVLEILEVLVSRHHVAPELDELRLELDRLRLERMDRIEKERKHQKELELVEDVWRGEAQDLLSQIAQLQEENKQLMTNLSHKDVNFSEEEFQKHEGMSERERQVMKKLKEVVDKQRDEIRAKDRELGLKNEDVEALQQQQTRLMKINHDLRHRVTVVEAQGKALIEQKVELEADLQTKEQEMGSLRAELGKLRERLQGEHSQNGEEEPETEPVGEESISDAEKVAMDLKDPNEPRFTLQELRDVLHERNELKSKVFLLQEELAYYKSEEMEEENRIPQPPPIAHPRTSPQPESGIKRLFSFFSRDKKRLANTQRNVHIQESFGQWANTHRDDGYTEQGQEALQHL [R291E]
2,disrupting interaction strength,MEEERGSALAAESALEKNVAELTVMDVYDIASLVGHEFERVIDQHGCEAIARLMPKVVRVLEILEVLVSRHHVAPELDELRLELDRLRLERMDRIEKERKHQKELELVEDVWRGEAQDLLSQIAQLQEENKQLMTNLSHKDVNFSEEEFQKHEGMSERERQVMKKLKEVVDKQRDEIRAKDRELGLKNEDVEALQQQQTRLMKINHDLRHRVTVVEAQGKALIEQKVELEADLQTKEQEMGSLRAELGKLRERLQGEHSQNGEEEPETEPVGEESISDAEKVAMDLKDPNRPRFTLQELRDVLHERNELESKVFLLQEELAYYKSEEMEEENRIPQPPPIAHPRTSPQPESGIKRLFSFFSRDKKRLANTQRNVHIQESFGQWANTHRDDGYTEQGQEALQHL [K310E]
3,disrupting interaction strength,MEEERGSALAAESALEKNVAELTVMDVYDIASLVGHEFERVIDQHGCEAIARLMPKVVRVLEILEVLVSRHHVAPELDELRLELDRLRLERMDRIEKERKHQKELELVEDVWRGEAQDLLSQIAQLQEENKQLMTNLSHKDVNFSEEEFQKHEGMSERERQVMKKLKEVVDKQRDEIRAKDRELGLKNEDVEALQQQQTRLMKINHDLRHRVTVVEAQGKALIEQKVELEADLQTKEQEMGSLRAELGKLRERLQGEHSQNGEEEPETEPVGEESISDAEKVAMDLKDPNRPEFTLQELRDVLHERNELKSKVFLLQEELAYYKSEEMEEENRIPQPPPIAHPRTSPQPESGIKRLFSFFSRDKKRLANTQRNVHIQESFGQWANTHRDDGYTEQGQEALQHL [R293E]

# Variants of: B2
# Settings: with rab8a_human RAB8A
row,effect of a mutation on the interaction,Variant
1,disrupting interaction strength,MEEPPVREEEEEEGEEDEERDEVGPEGALGKSPFQLTAEDVYDISYLLGRELMALGSDPRVTQLQFKVVRVLEMLEALVNEGSLALEELKMERDHLRKEVEGLRRQSPPASGEVNLGPNKMVVDLTDPNRPRFTLQELRDVLQERNKLESQLLVVQEELQCYKSGLIPPREGPGGRREKDAVVTSAKNAGRNKEEKTIIKKLFFFRSGKQT [K149E]
2,disrupting interaction strength,MEEPPVREEEEEEGEEDEERDEVGPEGALGKSPFQLTAEDVYDISYLLGRELMALGSDPRVTQLQFKVVRVLEMLEALVNEGSLALEELKMERDHLRKEVEGLRRQSPPASGEVNLGPNKMVVDLTDPNEPRFTLQELRDVLQERNKLKSQLLVVQEELQCYKSGLIPPREGPGGRREKDAVVTSAKNAGRNKEEKTIIKKLFFFRSGKQT [R130E]
3,disrupting interaction strength,MEEPPVREEEEEEGEEDEERDEVGPEGALGKSPFQLTAEDVYDISYLLGRELMALGSDPRVTQLQFKVVRVLEMLEALVNEGSLALEELKMERDHLRKEVEGLRRQSPPASGEVNLGPNKMVVDLTDPNRPEFTLQELRDVLQERNKLKSQLLVVQEELQCYKSGLIPPREGPGGRREKDAVVTSAKNAGRNKEEKTIIKKLFFFRSGKQT [R132E]

# Source: IntAct's records for PubMed 29125462
